Test system: intracellular proteome of ENR+CD and ENR organoids
Assay: LC-MS/MS TMT proteomics of ENR+CD versus ENR organoids
Type: cell-based, C57BL/6 mice
Conditions: for Average logFC / M1-1 Log2 Median Normalized / M1-2 Log2 Median Normalized / M2-1 Log2 Median Normalized / M2-2 Log2 Median Normalized: protein abundance, ENR+CD versus ENR organoids; for Average logFC: aggregate of the four sample pairs; for M1-1 Log2 Median Normalized: replicate M1-1; for M1-1 Log2 Median Normalized / M1-2 Log2 Median Normalized / M2-1 Log2 Median Normalized / M2-2 Log2 Median Normalized: log2 ratio; for M1-2 Log2 Median Normalized: replicate M1-2; for M2-1 Log2 Median Normalized: replicate M2-1; for M2-2 Log2 Median Normalized: replicate M2-2; for change: up = enriched in ENR+CD, down = enriched in ENR, FDR<0.05 and log fold change cut-off
Description: Because PCs are highly secretory, protein-rich cells, Applicants sought to assess the total intracellular proteome between conditions through liquid chromatography mass spectrometry (LC-MS/MS)-based proteomics. Applicants quantified relative protein abundance across eight samples using isobaric mass tag labeling from four ENR and four ENR+CD samples (M1-1 through M2-2, first digit denotes biological donor, second digit denotes technical replicate) (FIG. 3A). Samples were processed and analyzed in a single 10-plex by LC-MS/MS (FIG. 9A).
To affirm the reproducibility of the associated proteins in the ENR+CD-enriched proteome, Applicants performed relative quantification within differentiation sets.
Mass spectrometry proteomics sample preparation, sequencing, and quantification. Organoid cell pellets were isolated from Matrigel with mechanical dissociation and washed (cold PBS 5X) to remove residual extracellular protein. Proteins were extracted from cell pellets with 8 M urea (Sigma), reduced with 5 mM DTT (Thermo Fisher Pierce) for 45 minutes, alkylated with 10 mM IAA (Sigma) for 45 minutes in the dark, and double digested with both Lysyl Endopeptidase “LysC” (Wako) and trypsin (Promega) overnight at RT. A small aliquot of cellular lysate was removed from each sample for protein quantification via the Pierce™ BCA Protein Assay Kit (Pierce). After proteolytic digestion, the samples were quenched using formic acid to a final concentration of 1.0% and subsequently desalted on 10 mg OASIS HLB solid phase columns (Waters).
The peptides were labeled with TMT-10 isobaric mass tag reagent according to manufacturer's instructions (ThermoFisher Scientific). The peptides were labeled at a 1:8 ratio of peptide to TMT reagent, followed by 1-hour incubation at RT with bench top shaking at 850 rpm. After incubation, a […] of labeled tryptic peptide was removed from each labeled condition, desalted with C18 stage tips, and analyzed via LC-MS/MS using a Thermo Fisher Q Exactive Plus Hybrid Mass Spectrometer (QE-Plus) coupled to a Thermo Fisher EASY-nLC 1000 liquid chromatograph to ensure isobaric label incorporation >95%. An additional 1.0 μg of labeled tryptic peptide was removed from each channel, mixed together, desalted on a C18 stage tip, and analyzed via LC-MS to ensure equal relative protein loads. During these quality control steps, the labeled peptides were stored, unquenched at −80° C.

Molecule | Average logFC | M1-1 Log2 Median Normalized | M1-2 Log2 Median Normalized | M2-1 Log2 Median Normalized | M2-2 Log2 Median Normalized | change
B9EJ86 (protein, UniProt B9EJ86 1-889, looked up, full-length) MEAALADGEPDRSSLLGDSKDVLGPSTVVANSDEPQHLTPGKMSQRQGRDANPTPTRDLPQPSLSPASLHSQGFERGKEDISQNKDDSSLSMSKSKSESKLYNGSEKDSSTSSKLTKKESLKVQKKNYREEKKRATKELLSTITDPSVIVMADWLKIRGTLKSWTKLWCVLKPGVLLIYKTQKNGQWVGTVLLNACEIIERPSKKDGFCFKLFHPLEQSIWAVKGPKGEAVGSITQPLPSSYLIIRATSESDGRCWMDALELALKCSSLLKRTMVREGKEHDLSISSDSTHVTLYGLLRANNLHSGDNFQLNDSEIERQHFKDQDLYSDKSDKENDPEHDESDNEVLGKSEESDTDTSERQDDSYIDPEPVEPLKETTYMEQSHEELGEAGEASQTETVSEENKSLIWTLLKQVRPGMDLSRVVLPTFILEPRSFLDKLSDYYYHADFLSEAALEENPYFRLKKVVKWYLSGFYKKPKGLKKPYNPILGETFRCLWIHPRTNSKTFYIAEQVSHHPPISAFYVSNRKDGFCLSGSILAKSKFYGNSLSAILEGEARLTFLNRGEDYVMTMPYAHCKGILYGTMTLELGGTVNITCQKTGYSAILEFKLKPFLGSSDYVNQISGKLKLGKEVLATLEGHWDSEVFINDKKTDNSEIFWNPTPDIKQWRLIRHTVKFEEQDDFESEKLWQRVTKAINAKDQTEATQEKYVLEEAQRQAARDRKTKTQEWVCKLFELDPLTGEWHYKFSDTRPWDPLNDMIQFEKDGVIQTKVKHRTPMVSVPKMKHKPTRQQKKVVKGYSSPEPDIQDSSGSEAQSVKPSTRRKKGIDLGDIQSSIESIKQTQEEIKRNIMALRNHLLSSTPATDYFLQQKDYFVIFLLILLQVIINFIFK | 1.24 | 1.242 | 1.864 | 1.0905 | 0.802 | up
E9Q5C9 (protein, UniProt E9Q5C9 1-702, looked up, full-length) MADTGLRRVVPSDLYPLVLRFLRDSQLSEVASKFAKATGATQQDANASSLLDIYSFWLNRSTKAPKVKLQSNGPVTKKAKKETSSSDSSEDSSEDEDKKAQGLPTQKAAAQVKRASVPQHAGKAAAKASESSSSEESSEEEEEDKKKKPVQQKAAKPQAKAVRPPAKKAESSESDSDSDSDSSSEEETPQTQKPKAAVAAKAQTKAEAKPGTPAKAQPKVANGKAAASSSSSSSSDDSEEEKKAAAPPKKTVPKKQVVAKAPVKVAAAPTQKSSSSEDSSSEEEEGQRQPMKKKAGPYSSVPPPSVPLPKKSPGTQAPKKAAAQTQPADSSDDSSDDSDSSSEEEKKPPAKTVVSKTPAKAAPVKKKAESSSDSSDSDSSEDEAPAKPVSTTKSPKPAVTPKPSAAKAVTTPKQPAGSNQKPQSRKADSSSSEEESSSSEEEEASKKSATTPKAKVTAKAAPAKQAPQAAGDSSSDSDSSSSEEEEKTPKPPAKKKAAGGAVSTPAPGKKAEAKSSSSSSSSSSEDSSEEEKKKKPKATTPKIQASKANGTPASLNGKAAKESEEEEEEEETEEKKKAAGTKPGSGKKRKQNETADEATTPQAKKVKLETPNTFPKRKKGERRASSPFRRVREEEIEVDSRVADNSFDAKRGAAGDWGERANQVLKFTKGKSFRHEKTKKKRGSYRGGSISVQVNSVKFDSE | −1.884 | −1.968 | −1.821 | −1.5075 | −2.239 | down
D3YUE4 (protein, UniProt D3YUE4 1-279, looked up, full-length) MAACAGGPGSWSENILKYFLRNNQITAEDGAEILWSHAANHKSQMNEALKSAAHMIEADVLLPSDGSEHGQPIMAHPPETSSDNTLQEWLAEVVKSNKGIKLDFKSLAAVRASMLFLDNMKQHLQRPVWINADILPGPNGSSKVVDAKAFLDTVTSFFPDVTFSLGWTTGWHPEKVNEGYSWSMVKEMDYICSELTQPVTFPVRAALVRQSCPQLLWLLTKSNRYSLTVWTGKDDIYSTEDLLYIRDYFNKTQVFYDISEPQNHEFKQAIGIRGHSLRI | −1.165 | −0.678 | −1.053 | −1.3175 | −1.611 | down
